This test concerns the target HIV-1 JRFL gp140 Recombinant protein (HIV-1 JRFL). Kind of test: Attana Cell A200 QCM; IgG captured on anti-human IgG Fc; gp140 at 25, 50 and 100 nM; 1:1 fit.

B1: 7B2 IgG (antibody, V domains shown)
VH: QVQLVQSGGGVFKPGGSLRLSCEASGFTFTEYYMTWVRQAPGKGLEWLAYISKNGEYSKYSPSSNGRFTISRDNAKNSVFLQLDRLSADDTAVYYCARADGLTYFSELLQYIFDLWGQGARVTVSS
VL: DIVMTQSPDSLAVSPGERATIHCKSSQTLLYSSNNRHSIAWYQQRPGQPPKLLLYWASMRLSGVPDRFSGSGSGTDFTLTINNLQAEDVAIYYCHQYSSHPPTFGHGTRVEIK
With B1, the Kd amounted to 2.9 nM.

B2: 7B2GL IgG (antibody, V domains shown)
VH: QVQLVESGGGLVKPGGSLRLSCAASGFTFSEYYMTWIRQAPGKGLEWVSYISKNGEYSKYSPSSNGRFTISRDNAKNSLYLQMNSLRAEDTAVYYCARADGLTYFSELLQYIFDLWGQGTLVTVSS
VL: DIVMTQSPDSLAVSLGERATINCKSSQTLLYSSNNRHSIAWYQQKPGQPPKLLIYWASMRLSGVPDRFSGSGSGTDFTLTISSLQAEDVAVYYCHQYSSHPPTFGQGTKVEIK
On to B2, for which the Kd came to 2.9 nM.

In general, Kd refers to the free concentration of one partner at which half of the binding sites on the other are occupied at equilibrium, for simple one-to-one binding.
